Data on one substance can be found in US20200085871A1.

This assay addresses mouse CD19 on B cells (mouse) (UniProt P25918). The assay can be described thus: cell-based or functional assay.

Values joined by “and” are separate entries in the source; they are usually repeats but may differ in a detail not shown here. Identical values can stand only once.

Chain of UniProt P25918 (P25918 19-547): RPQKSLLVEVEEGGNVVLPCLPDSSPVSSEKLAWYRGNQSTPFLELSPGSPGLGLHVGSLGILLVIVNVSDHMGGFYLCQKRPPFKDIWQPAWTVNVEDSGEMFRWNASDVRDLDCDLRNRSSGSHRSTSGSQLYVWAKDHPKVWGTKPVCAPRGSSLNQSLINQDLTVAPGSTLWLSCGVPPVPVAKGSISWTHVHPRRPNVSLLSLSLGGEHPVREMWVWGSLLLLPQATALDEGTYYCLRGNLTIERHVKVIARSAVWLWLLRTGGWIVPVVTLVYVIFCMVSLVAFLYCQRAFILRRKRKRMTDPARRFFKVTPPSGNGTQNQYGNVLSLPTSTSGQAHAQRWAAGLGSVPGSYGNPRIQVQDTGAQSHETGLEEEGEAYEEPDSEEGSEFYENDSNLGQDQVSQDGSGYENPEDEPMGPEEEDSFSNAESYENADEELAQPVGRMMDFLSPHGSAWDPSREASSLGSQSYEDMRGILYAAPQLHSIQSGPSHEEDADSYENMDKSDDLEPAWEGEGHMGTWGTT

Take “anti-CD19-28Z.1-3 CAR (1D3 anti-mouse CD19 chimeric antigen receptor), expressed on transduced mouse CD8+ cytotoxic T cells (from UniProt P31041 115-218; P24161 52-164)”: the percent CD19+ B cells remaining in CAR T-treated MRL/lpr mice (flow cytometry) was 0.05% and 0.14%.
